From patent US20210292384A1 (LARIX BIOSCIENCE, published 2021)

B1: LB697-D30E/L79W/N330Y (Fc fusion)
chain: QSTIEEQAKTFLEKFNHEAEDLFYQSSLASWNYNTNITEENVQNMNNAGDKWSAFLKEQSTWAQMYPLQEIQNLTVKLQLQALQQNGSSVLSEDKSKRLNTILNTMSTIYSTGKVCNPDNPQECLLLEPGLNEIMANSLDYNERLWAWESWRSEVGKQLRPLYEEYVVLKNEMARANHYEDYGDYWRGDYEVNGVDGYDYSRGQLIEDVEHTFEEIKPLYEHLHAYVRAKLMNAYPSYISPIGCLPAHLLGDMWGRFWTNLYSLTVPFGQKPNIDVTDAMVDQAWDAQRIFKEAEKFFVSVGLPNMTQGFWEYSMLTDPGNVQKAVCHPTAWDLGKGDFRILMCTKVTMDDFLTAHHEMGHIQYDMAYAAQPFLLRNGANEGFHEAVGEIMSLSAATPKHLKSIGLLSPDFQEDNETEINFLLKQALTIVGTLPFTYMLEKWRWMVFKGEIPKDQWMKKWWEMKREIVGVVEPVPHDETYCDPASLFHVSNDYSFIRYYTRTLYQFQFQEALCQAAKHEGPLHKCDISNSTEAGQKLFNMLRLGKSEPWTLALENVVGAKNMNVRPLLNYFEPLFTWLKDQNKNSFVGWSTDWSPYAD
B2: LB697-D30E/Q42K/L79W/N330Y (Fc fusion)
chain: QSTIEEQAKTFLEKFNHEAEDLFYKSSLASWNYNTNITEENVQNMNNAGDKWSAFLKEQSTWAQMYPLQEIQNLTVKLQLQALQQNGSSVLSEDKSKRLNTILNTMSTIYSTGKVCNPDNPQECLLLEPGLNEIMANSLDYNERLWAWESWRSEVGKQLRPLYEEYVVLKNEMARANHYEDYGDYWRGDYEVNGVDGYDYSRGQLIEDVEHTFEEIKPLYEHLHAYVRAKLMNAYPSYISPIGCLPAHLLGDMWGRFWTNLYSLTVPFGQKPNIDVTDAMVDQAWDAQRIFKEAEKFFVSVGLPNMTQGFWEYSMLTDPGNVQKAVCHPTAWDLGKGDFRILMCTKVTMDDFLTAHHEMGHIQYDMAYAAQPFLLRNGANEGFHEAVGEIMSLSAATPKHLKSIGLLSPDFQEDNETEINFLLKQALTIVGTLPFTYMLEKWRWMVFKGEIPKDQWMKKWWEMKREIVGVVEPVPHDETYCDPASLFHVSNDYSFIRYYTRTLYQFQFQEALCQAAKHEGPLHKCDISNSTEAGQKLFNMLRLGKSEPWTLALENVVGAKNMNVRPLLNYFEPLFTWLKDQNKNSFVGWSTDWSPYAD

Biological target: T1, RBD domain of SARS-CoV2 spike protein (SARS-CoV-2, UniProt P0DTC2 319-541)
T1 construct: domain: RBD domain
Assay: Octet (BLI), ACE2-Fc against spike RBD

| Binder | Kd | koff | kon |
| --- | --- | --- | --- |
| B1 | 1.49 nM | 0.0012 s⁻¹ | 808000 M⁻¹ s⁻¹ |
| B2 | 0.91 nM | 0.00074 s⁻¹ | 810000 M⁻¹ s⁻¹ |
